From US20260365739 (published 2026)
Substitutions are numbered along the chain they refer to.

B1: EG2 (antibody, V domains shown)
VH: QVQLVESGGGLVQAGDSLRVSCAASGRDFSDYVMGWFRQAPGKEREFVAAISRNGLTTRYADSVKGRFTISRDNDKNMVYLQMNSLKPEDTAVYYCAVNSAGTYVSPRSREYDYWGQGTQVTVSS
B2: EG2_22_88 (antibody, V domains shown)
VH: B1 VH with S21C, Y80C
B3: EG2_24_86 (antibody, V domains shown)
VH: B1 VH with A23C, M78C
B4: EG2_4_25 (antibody, V domains shown)
VH: B1 VH with L4C, A24C
B5: EG2_6_119 (designed binder)
chain: B1 VH with E6C, G116C
B6: IGF1R3_6_119 (designed binder)
chain: QVKLECSGGGLVQAGGSLRLSCVASEYPSNFYAMSWFRQAPGKEREFVAGVSRDGLTTLYADSVKGRFTMSRDNAKNTVDLQMNSVKAEDTAVYYCAIVITGVWNKVDVNSRSYHYWCQGTQVTVSS
B7: IGF1R3_22_88 (antibody, V domains shown)
VH: B6 chain with C6E, S21C, D80C, C118G
B8: IGF1R3_24_86 (antibody, V domains shown)
VH: B6 chain with C6E, V23C, T78C, C118G
B9: IGF1R3_4_25 (antibody, V domains shown)
VH: B6 chain with L4C, C6E, A24C, C118G
B10: IGF1R3 (antibody, V domains shown)
VH: B6 chain with C6E, C118G
B11: IGF1R4_22_88 (antibody, V domains shown)
VH: QVKLEESGGGLVQAGGSLRLCCEVSGGTVSPTAMGWFRQAPGKEREFVGHITWSRGTTRVASSVKDRFTISRDSAKNTVCLQMNSLKSEDTAVYYCAASTFLRILPEESAYTYWGQGTQVTVSS
B12: IGF1R4_24_86 (antibody, V domains shown)
VH: B11 VH with C21S, E23C, T78C, C80Y
B13: IGF1R4_6_119 (designed binder)
chain: B11 VH with E6C, C21S, C80Y, G115C
B14: IGF1R4 (antibody, V domains shown)
VH: B11 VH with C21S, C80Y
B15: IGF1R4_4_25 (antibody, V domains shown)
VH: B11 VH with L4C, C21S, V24C, C80Y
B16: IGF1R5_4_25 (antibody, V domains shown)
VH: QVKCEESGGGLVQAGGSLRLSCACSGRTIDNYAMAWSRQAPGKDREFVATIDWGDGGARYANSVKGRFTISRDNAKGTMYLQMNNLEPEDTAVYSCAMARQSRVNLDVARYDYWGQGTQVTVSS
B17: IGF1R5_22_88 (antibody, V domains shown)
VH: B16 VH with C4L, S21C, C24A, Y80C
B18: IGF1R5 (antibody, V domains shown)
VH: B16 VH with C4L, C24A

What follows are binders tested against EGFR (human, UniProt P00533) (assay: SPR).

Binder	Kd [nM]
B1	14.6
B2	47.2
B3	62.5
B4	10.6
B5	25.7

Each binder was assayed against IGF1R (human, UniProt P08069) (assay: SPR).
Sequence of IGF1R (P08069 31-932): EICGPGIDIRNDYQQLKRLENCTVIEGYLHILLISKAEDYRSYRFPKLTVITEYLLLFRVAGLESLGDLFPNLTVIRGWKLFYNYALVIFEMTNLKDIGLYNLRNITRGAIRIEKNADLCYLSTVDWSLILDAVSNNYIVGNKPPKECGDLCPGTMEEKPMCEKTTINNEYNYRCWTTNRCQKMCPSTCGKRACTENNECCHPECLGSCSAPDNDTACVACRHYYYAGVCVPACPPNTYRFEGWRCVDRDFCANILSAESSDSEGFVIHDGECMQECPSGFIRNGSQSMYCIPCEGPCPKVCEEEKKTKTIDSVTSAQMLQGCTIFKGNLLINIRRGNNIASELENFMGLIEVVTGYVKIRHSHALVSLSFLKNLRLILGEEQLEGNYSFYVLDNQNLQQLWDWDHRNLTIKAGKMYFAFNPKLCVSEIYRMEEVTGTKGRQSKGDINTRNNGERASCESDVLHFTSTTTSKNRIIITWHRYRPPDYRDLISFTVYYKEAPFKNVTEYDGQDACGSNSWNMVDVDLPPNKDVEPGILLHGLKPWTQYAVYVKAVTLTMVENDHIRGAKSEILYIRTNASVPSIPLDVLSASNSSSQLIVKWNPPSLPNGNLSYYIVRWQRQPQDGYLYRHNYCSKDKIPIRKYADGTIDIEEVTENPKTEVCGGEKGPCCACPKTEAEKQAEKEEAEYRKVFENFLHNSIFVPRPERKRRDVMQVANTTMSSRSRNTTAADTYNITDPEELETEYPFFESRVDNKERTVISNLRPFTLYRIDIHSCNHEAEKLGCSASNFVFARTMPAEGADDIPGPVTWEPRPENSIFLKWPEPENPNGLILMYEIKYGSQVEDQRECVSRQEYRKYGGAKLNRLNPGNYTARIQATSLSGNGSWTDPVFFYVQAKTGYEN

Binder	Kd [nM]
B6	1.4
B7	0.8
B8	5.3
B9	2.3
B10	0.9
B11	0.5
B12	1.1
B13	0.3
B14	0.3
B15	0.5
B16	0.8
B17	1.4
B18	1.1
